Assay results as given in patent US20220064329A1 (Novo Nordisk, published 2022).

T1: recombinant human activated Factor VII (FVIIa) (human, UniProt P08709 61-212; P08709 213-466, ten glutamate residues of the Gla domain may be gamma-carboxylated)
T1 construct: chains tethered by a disulfide bond; also called Factor VIIa; rFVIIa
T1 sequence 1: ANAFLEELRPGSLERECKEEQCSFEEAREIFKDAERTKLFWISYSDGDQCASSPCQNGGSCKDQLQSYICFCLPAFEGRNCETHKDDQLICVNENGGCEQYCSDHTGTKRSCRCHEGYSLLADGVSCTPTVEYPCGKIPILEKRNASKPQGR
T1 sequence 2: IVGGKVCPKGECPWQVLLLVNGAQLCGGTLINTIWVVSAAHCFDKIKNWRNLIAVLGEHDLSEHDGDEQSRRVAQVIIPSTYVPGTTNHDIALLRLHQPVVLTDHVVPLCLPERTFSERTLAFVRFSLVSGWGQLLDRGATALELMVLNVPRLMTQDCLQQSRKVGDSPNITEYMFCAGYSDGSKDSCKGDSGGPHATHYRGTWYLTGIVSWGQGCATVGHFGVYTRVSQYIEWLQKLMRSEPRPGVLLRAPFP


Molecular target: T1, recombinant human activated Factor VII …
Test: BLI (Fortebio)

| Binder | Kd |
| --- | --- |
| VH SEQ ID NO 594 / VL SEQ ID NO 470 (antibody, IgG4, V domains shown, humanized 11F2; IgG4 S228P/kappa) VH: QVQLQESGPGLVKPSDTLSLTCAVSGYSISSDSAWSWIRQPPGKKLEWIGYIQYSGSTNYNPSLKSRVTMSVDTSKNQFSLKLSSVTALDTAVYYCARSVNYYGNSFAVGPWGQGTLVTVSS VL: EIVLTQSPATLSLSPGERATLSCRASQGVSDYLHWYQQKPGQAPRLLIKYASQPATGIPARFSGSGSGTDFTLTISSLEPEDFAVYYCQNGHSFPLTFGQGTKLEIK | 35 nM |
| VH SEQ ID NO 602 / VL SEQ ID NO 414 (antibody, IgG4, V domains shown, humanized 11F2; IgG4 S228P/kappa) VH: QVQLQESGPGLVKPSQTLSLTCTVSGGSISSDSAWSWIRQPPGKGLEWIGYIQYSGSTNYNPSLKSRVTISVDTSKNQFSLKLSSVTAADTAVYYCARSVNYYGNSFAVGYWGQGTLVTVSS VL: EIVLTQSPATLSLSPGERATLSCRASQGVSDYLAWYQQKPGQAPRLLIKYASQPATGIPARFSGSGSGTDFTLTISSLEPEDFAVYYCQNGHSFPLTFGQGTKLEIK | 310 nM |
| VH SEQ ID NO 602 / VL SEQ ID NO 390 (antibody, IgG4, V domains shown, humanized 11F2; IgG4 S228P/kappa) VH: QVQLQESGPGLVKPSQTLSLTCTVSGGSISSDSAWSWIRQPPGKGLEWIGYIQYSGSTNYNPSLKSRVTISVDTSKNQFSLKLSSVTAADTAVYYCARSVNYYGNSFAVGYWGQGTLVTVSS VL: EIVLTQSPATLSLSPGERATLSCRASQGVSDYLAWYQQKPGEAPRLLIKYASQPATGIPARFSGSGSGTDFTLTISSLEPEDFAVYYCQNGHSFPLTFGQGTKLEIK | 370 nM |
| VH SEQ ID NO 594 / VL SEQ ID NO 494 (antibody, IgG4, V domains shown, humanized 11F2; IgG4 S228P/kappa) VH: QVQLQESGPGLVKPSDTLSLTCAVSGYSISSDSAWSWIRQPPGKKLEWIGYIQYSGSTNYNPSLKSRVTMSVDTSKNQFSLKLSSVTALDTAVYYCARSVNYYGNSFAVGPWGQGTLVTVSS VL: EIVLTQSPATLSLSPGERATLSCRASQGVSDYLHWYQQKPGQAPRLLIKYASQPATGIPARFSGSGSGTDFTLTISSLEPEDVAVYYCQNGHSFPLTFGQGTKLEIK | 43 nM |
| VH SEQ ID NO 602 / VL SEQ ID NO 406 (antibody, IgG4, V domains shown, humanized 11F2; IgG4 S228P/kappa) VH: QVQLQESGPGLVKPSQTLSLTCTVSGGSISSDSAWSWIRQPPGKGLEWIGYIQYSGSTNYNPSLKSRVTISVDTSKNQFSLKLSSVTAADTAVYYCARSVNYYGNSFAVGYWGQGTLVTVSS VL: EIVLTQSPATLSLSPGERATLSCRASQGVSDYLAWYQQKPGQAPRLLIKYASQPATGIPARFSGSGSGTDFTLTISSLEPEDFAVYYCQNGHSFPLTFGAGTKLEIK | 90 nM |
| VH SEQ ID NO 602 / VL SEQ ID NO 350 (antibody, IgG4, V domains shown, humanized 11F2; IgG4 S228P/kappa) VH: QVQLQESGPGLVKPSQTLSLTCTVSGGSISSDSAWSWIRQPPGKGLEWIGYIQYSGSTNYNPSLKSRVTISVDTSKNQFSLKLSSVTAADTAVYYCARSVNYYGNSFAVGYWGQGTLVTVSS VL: EIVLTQSPATLSLSPGERATLSCRASQGISDYLHWYQQKPGQAPRLLIKYTSQPATGIPARFSGSGSGTDFTLTISSLEPEDFAVYYCQNGHSFPLTFGAGTKLELK | 10 nM |
| VH SEQ ID NO 602 / VL SEQ ID NO 342 (antibody, IgG4, V domains shown, humanized 11F2; IgG4 S228P/kappa) VH: QVQLQESGPGLVKPSQTLSLTCTVSGGSISSDSAWSWIRQPPGKGLEWIGYIQYSGSTNYNPSLKSRVTISVDTSKNQFSLKLSSVTAADTAVYYCARSVNYYGNSFAVGYWGQGTLVTVSS VL: EIVLTQSPATLSLSPGERATLSCRASQGISDYLHWYQQKPGQAPRLLIKYTSQPATGIPARFSGSGSGRDFTLTISSLEPEDFAVYYCQNGHSFPLTFGAGTKLELK | 14 nM |
| VH SEQ ID NO 602 / VL SEQ ID NO 326 (antibody, IgG4, V domains shown, humanized 11F2; IgG4 S228P/kappa) VH: QVQLQESGPGLVKPSQTLSLTCTVSGGSISSDSAWSWIRQPPGKGLEWIGYIQYSGSTNYNPSLKSRVTISVDTSKNQFSLKLSSVTAADTAVYYCARSVNYYGNSFAVGYWGQGTLVTVSS VL: EIVLTQSPATLSLSPGERATLSCRASQGISDYLHWYQQKPGEAPRLLIKYTSQPATGIPARFSGSGSGTDFTLTISSLEPEDFGVYYCQNGHSFPLTFGAGTKLELK | 8.8 nM |
| VH SEQ ID NO 602 / VL SEQ ID NO 310 (antibody, IgG4, V domains shown, humanized 11F2; IgG4 S228P/kappa) VH: QVQLQESGPGLVKPSQTLSLTCTVSGGSISSDSAWSWIRQPPGKGLEWIGYIQYSGSTNYNPSLKSRVTISVDTSKNQFSLKLSSVTAADTAVYYCARSVNYYGNSFAVGYWGQGTLVTVSS VL: EIVLTQSPATLSLSPGERATLSCRASQGISDYLAWYQQKPGQAPRLLIKYASQPATGIPARFSGSGSGTDFTLTISSLEPEDFAVYYCQNGHSFPLTFGQGTKLEIK | 48 nM |
| VH SEQ ID NO 602 / VL SEQ ID NO 358 (antibody, IgG4, V domains shown, humanized 11F2; IgG4 S228P/kappa) VH: QVQLQESGPGLVKPSQTLSLTCTVSGGSISSDSAWSWIRQPPGKGLEWIGYIQYSGSTNYNPSLKSRVTISVDTSKNQFSLKLSSVTAADTAVYYCARSVNYYGNSFAVGYWGQGTLVTVSS VL: EIVLTQSPATLSLSPGERATLSCRASQGISDYLHWYQQKPGQAPRLLIKYTSQPATGIPARFSGSGSGTDFTLTISSLEPEDFAVYYCQNGHSFPLTFGQGTKLEIK | 9.2 nM |
| VH SEQ ID NO 602 / VL SEQ ID NO 382 (antibody, IgG4, V domains shown, humanized 11F2; IgG4 S228P/kappa) VH: QVQLQESGPGLVKPSQTLSLTCTVSGGSISSDSAWSWIRQPPGKGLEWIGYIQYSGSTNYNPSLKSRVTISVDTSKNQFSLKLSSVTAADTAVYYCARSVNYYGNSFAVGYWGQGTLVTVSS VL: EIVLTQSPATLSLSPGERATLSCRASQGLSDYLHWYQQKPGEAPRLLIKYASQPATGIPARFSGSGSGTDFTLTISSLEPEDFAVYYCQNGHSFPLTFGQGTKLEIK | 14 nM |
| VH SEQ ID NO 594 / VL SEQ ID NO 502 (antibody, IgG4, V domains shown, humanized 11F2; IgG4 S228P/kappa) VH: QVQLQESGPGLVKPSDTLSLTCAVSGYSISSDSAWSWIRQPPGKKLEWIGYIQYSGSTNYNPSLKSRVTMSVDTSKNQFSLKLSSVTALDTAVYYCARSVNYYGNSFAVGPWGQGTLVTVSS VL: EIVLTQSPATLSLSPGERATLSCRASQGVSDYLHWYQQKPGQAPRLLIKYTSQPATGIPARFSGSGSGTDFTLTISSLEPEDFAVYYCQNGHSFPLTFGQGTKLEIK | 30 nM |
| VH SEQ ID NO 594 / VL SEQ ID NO 486 (antibody, IgG4, V domains shown, humanized 11F2; IgG4 S228P/kappa) VH: QVQLQESGPGLVKPSDTLSLTCAVSGYSISSDSAWSWIRQPPGKKLEWIGYIQYSGSTNYNPSLKSRVTMSVDTSKNQFSLKLSSVTALDTAVYYCARSVNYYGNSFAVGPWGQGTLVTVSS VL: EIVLTQSPATLSLSPGERATLSCRASQGVSDYLHWYQQKPGQAPRLLIKYASQPATGIPARFSGSGSGTDFTLTISSLEPEDFGVYYCQNGHSFPLTFGQGTKLEIK | 33 nM |
| VH SEQ ID NO 594 / VL SEQ ID NO 478 (antibody, IgG4, V domains shown, humanized 11F2; IgG4 S228P/kappa) VH: QVQLQESGPGLVKPSDTLSLTCAVSGYSISSDSAWSWIRQPPGKKLEWIGYIQYSGSTNYNPSLKSRVTMSVDTSKNQFSLKLSSVTALDTAVYYCARSVNYYGNSFAVGPWGQGTLVTVSS VL: EIVLTQSPATLSLSPGERATLSCRASQGVSDYLHWYQQKPGQAPRLLIKYASQPATGIPARFSGSGSGTDFTLTISSLEPEDFAVYYCQQGHSFPLTFGQGTKLEIK | 200 nM |
| VH SEQ ID NO 602 / VL SEQ ID NO 454 (antibody, IgG4, V domains shown, humanized 11F2; IgG4 S228P/kappa) VH: QVQLQESGPGLVKPSQTLSLTCTVSGGSISSDSAWSWIRQPPGKGLEWIGYIQYSGSTNYNPSLKSRVTISVDTSKNQFSLKLSSVTAADTAVYYCARSVNYYGNSFAVGYWGQGTLVTVSS VL: EIVLTQSPATLSLSPGERATLSCRASQGVSDYLHWYQQKPGEAPRLLIKYASQPATGIPARFSGSGSGTDFTLTISSLEPEDFAVYYCQNGHSFPLTFGQGTKLEIK | 13 nM |
| VH SEQ ID NO 602 / VL SEQ ID NO 438 (antibody, IgG4, V domains shown, humanized 11F2; IgG4 S228P/kappa) VH: QVQLQESGPGLVKPSQTLSLTCTVSGGSISSDSAWSWIRQPPGKGLEWIGYIQYSGSTNYNPSLKSRVTISVDTSKNQFSLKLSSVTAADTAVYYCARSVNYYGNSFAVGYWGQGTLVTVSS VL: EIVLTQSPATLSLSPGERATLSCRASQGVSDYLAWYQQKPGQAPRLLIKYASQPATGIPARFSGSGSGTDFTLTISSLEPEDVAVYYCQNGHSFPLTFGQGTKLEIK | 600 nM |
| VH SEQ ID NO 602 / VL SEQ ID NO 334 (antibody, IgG4, V domains shown, humanized 11F2; IgG4 S228P/kappa) VH: QVQLQESGPGLVKPSQTLSLTCTVSGGSISSDSAWSWIRQPPGKGLEWIGYIQYSGSTNYNPSLKSRVTISVDTSKNQFSLKLSSVTAADTAVYYCARSVNYYGNSFAVGYWGQGTLVTVSS VL: EIVLTQSPATLSLSPGERATLSCRASQGISDYLHWYQQKPGQAPRLLIKYASQPATGIPARFSGSGSGTDFTLTISSLEPEDFAVYYCQNGHSFPLTFGQGTKLEIK | 10 nM |
| VH SEQ ID NO 602 / VL SEQ ID NO 318 (antibody, IgG4, V domains shown, humanized 11F2; IgG4 S228P/kappa) VH: QVQLQESGPGLVKPSQTLSLTCTVSGGSISSDSAWSWIRQPPGKGLEWIGYIQYSGSTNYNPSLKSRVTISVDTSKNQFSLKLSSVTAADTAVYYCARSVNYYGNSFAVGYWGQGTLVTVSS VL: EIVLTQSPATLSLSPGERATLSCRASQGISDYLHWYQQKPGEAPRLLIKYTSQPATGIPARFSGSGSGTDFTLTISSLEPEDFAVYYCQNGHSFPLTFGQGTKLEIK | 9 nM |
| VH SEQ ID NO 602 / VL SEQ ID NO 366 (antibody, IgG4, V domains shown, humanized 11F2; IgG4 S228P/kappa) VH: QVQLQESGPGLVKPSQTLSLTCTVSGGSISSDSAWSWIRQPPGKGLEWIGYIQYSGSTNYNPSLKSRVTISVDTSKNQFSLKLSSVTAADTAVYYCARSVNYYGNSFAVGYWGQGTLVTVSS VL: EIVLTQSPATLSLSPGERATLSCRASQGLSDYLAWYQQKPGEAPRLLIKYASQPATGIPARFSGSGSGTDFTLTISSLEPEDFAVYYCQNGHSFPLTFGQGTKLEIK | 51 nM |
| VH SEQ ID NO 602 / VL SEQ ID NO 430 (antibody, IgG4, V domains shown, humanized 11F2; IgG4 S228P/kappa) VH: QVQLQESGPGLVKPSQTLSLTCTVSGGSISSDSAWSWIRQPPGKGLEWIGYIQYSGSTNYNPSLKSRVTISVDTSKNQFSLKLSSVTAADTAVYYCARSVNYYGNSFAVGYWGQGTLVTVSS VL: EIVLTQSPATLSLSPGERATLSCRASQGVSDYLAWYQQKPGQAPRLLIKYASQPATGIPARFSGSGSGTDFTLTISSLEPEDFGVYYCQNGHSFPLTFGQGTKLEIK | 590 nM |
